Measurements as given in the RNAGym collection of RNA variant scans (doi:10.7554/elife.80360).

B1: CPEB3 Ribozyme (parent)
chain: GGGGGCCACAGCAGAAGCGUUCACGUCGCGGCCCCUGUCAGAUUCUGGUGAAUCUGCGAAUUCUGCUGU

Variants of: B1
Assay: self-cleavage, relative activity (ratio to wild type); higher = more cleavage; co-transcriptional

Variant	self-cleavage
CGGGGCCACAGCAGAAGCCUUCACGUCGCGGCCCCUGUCAGAUUCUGGUGAAUCUGCGAAUUCUGCUGU [G1C G19C]	0.126
CGGGGCCACAGCAGAAGCUUUCACGUCGCGGCCCCUGUCAGAUUCUGGUGAAUCUGCGAAUUCUGCUGU [G1C G19U]	0.166
CGGGGCCACAGCAGAAGCGUUCACGUCACGGCCCCUGUCAGAUUCUGGUGAAUCUGCGAAUUCUGCUGU [G1C G28A]	0.102
CGGGGCCACAGCAGAAGCGUUCACGUCGCUGCCCCUGUCAGAUUCUGGUGAAUCUGCGAAUUCUGCUGU [G1C G30U]	0.162
CGGGGCCACAGCAGAAGCGUUCACGUCGCGGCCCCUAUCAGAUUCUGGUGAAUCUGCGAAUUCUGCUGU [G1C G37A]	0.157
CGGGGCCACAGCAGAAGCGUUCACGUCGCGGCCCCUGUCAUAUUCUGGUGAAUCUGCGAAUUCUGCUGU [G1C G41U]	0.193
CGGGGCCACAGCAGAAGCGUUCACGUCGCGGCCCCUGUCAGAUUCUGAUGAAUCUGCGAAUUCUGCUGU [G1C G48A]	0.204
CGGGGCCACAGCAGAAGCGUUCACGUCGCGGCCCCUGUCAGAUUCUGCUGAAUCUGCGAAUUCUGCUGU [G1C G48C]	0.215
CGGGGCCACAGCAGAAGCGUUCACGUCGCGGCCCCUGUCAGAUUCUGGUAAAUCUGCGAAUUCUGCUGU [G1C G50A]	0.224
CGGGGCCACAGCAGAAGCGUUCACGUCGCGGCCCCUGUCAGAUUCUGGUCAAUCUGCGAAUUCUGCUGU [G1C G50C]	0.145
CGGGGCCACAGCAGAAGCGUUCACGUCGCGGCCCCUGUCAGAUUCUGGUGAAUCUUCGAAUUCUGCUGU [G1C G56U]	0.224
CGGGGCCACAGCAGAAGCGUUCACGUCGCGGCCCCUGUCAGAUUCUGGUGAAUCUGCGAAUUCUACUGU [G1C G65A]	0.134
CGGGGCCACAGCAGAAGCGUUCACGUCGCGGCCCCUGUCAGAUUCUGGUGAAUCUGCGAAUUCUCCUGU [G1C G65C]	0.174
CGGGGCCACAGCAGAAGCGAUCACGUCGCGGCCCCUGUCAGAUUCUGGUGAAUCUGCGAAUUCUGCUGU [G1C U20A]	0.0802
CGGGGCCACAGCAGAAGCGUACACGUCGCGGCCCCUGUCAGAUUCUGGUGAAUCUGCGAAUUCUGCUGU [G1C U21A]	0.246
CGGGGCCACAGCAGAAGCGUUCACGACGCGGCCCCUGUCAGAUUCUGGUGAAUCUGCGAAUUCUGCUGU [G1C U26A]	0.165
CGGGGCCACAGCAGAAGCGUUCACGUCGCGGCCCCGGUCAGAUUCUGGUGAAUCUGCGAAUUCUGCUGU [G1C U36G]	0.297
CGGGGCCACAGCAGAAGCGUUCACGUCGCGGCCCCUGACAGAUUCUGGUGAAUCUGCGAAUUCUGCUGU [G1C U38A]	0.267
CGGGGCCACAGCAGAAGCGUUCACGUCGCGGCCCCUGUCAGAUCCUGGUGAAUCUGCGAAUUCUGCUGU [G1C U44C]	0.232
CGGGGCCACAGCAGAAGCGUUCACGUCGCGGCCCCUGUCAGAUUCAGGUGAAUCUGCGAAUUCUGCUGU [G1C U46A]	0.208

Variant	self-cleavage
CGGGGCCACAGCAGAAGCGUUCACGUCGCGGCCCCUGUCAGAUUCGGGUGAAUCUGCGAAUUCUGCUGU [G1C U46G]	0.234
CGGGGCCACAGCAGAAGCGUUCACGUCGCGGCCCCUGUCAGAUUCUGGAGAAUCUGCGAAUUCUGCUGU [G1C U49A]	0.287
CGGGGCCACAGCAGAAGCGUUCACGUCGCGGCCCCUGUCAGAUUCUGGUGAACCUGCGAAUUCUGCUGU [G1C U53C]	0.0726
CGGGGCCACAGCAGAAGCGUUCACGUCGCGGCCCCUGUCAGAUUCUGGUGAAUCGGCGAAUUCUGCUGU [G1C U55G]	0.135
CGGGGCCACAGCAGAAGCGUUCACGUCGCGGCCCCUGUCAGAUUCUGGUGAAUCUGCGAAAUCUGCUGU [G1C U61A]	0.253
CGGGGCCACAGCAGAAGCGUUCACGUCGCGGCCCCUGUCAGAUUCUGGUGAAUCUGCGAAUCCUGCUGU [G1C U62C]	0.264
CGGGGCCACAGCAGAAGCGUUCACGUCGCGGCCCCUGUCAGAUUCUGGUGAAUCUGCGAAUUCGGCUGU [G1C U64G]	0.204
CGGGGCCACAGCAGAAGCGUUCACGUCGCGGCCCCUGUCAGAUUCUGGUGAAUCUGCGAAUUCUGCGGU [G1C U67G]	0.312
CGGGGCCACAGCAGAAGCGUUCACGUCGCGGCCCCUGUCAGAUUCUGGUGAAUCUGCGAAUUCUGCUGC [G1C U69C]	0.396
CGGGGCCACAGCAGAAGCGUUCACGUCGCGGCCCCUGUCAGAUUCUGGUGAAUCUGCGAAUUCUGCUGG [G1C U69G]	0.409
UGGGGCCGCAGCAGAAGCGUUCACGUCGCGGCCCCUGUCAGAUUCUGGUGAAUCUGCGAAUUCUGCUGU [G1U A8G]	0.0916
UGGGGCCACCGCAGAAGCGUUCACGUCGCGGCCCCUGUCAGAUUCUGGUGAAUCUGCGAAUUCUGCUGU [G1U A10C]	0.186
UGGGGCCACGGCAGAAGCGUUCACGUCGCGGCCCCUGUCAGAUUCUGGUGAAUCUGCGAAUUCUGCUGU [G1U A10G]	0.0897
UGGGGCCACAGCCGAAGCGUUCACGUCGCGGCCCCUGUCAGAUUCUGGUGAAUCUGCGAAUUCUGCUGU [G1U A13C]	0.0972
UGGGGCCACAGCGGAAGCGUUCACGUCGCGGCCCCUGUCAGAUUCUGGUGAAUCUGCGAAUUCUGCUGU [G1U A13G]	0.0953
UGGGGCCACAGCAGUAGCGUUCACGUCGCGGCCCCUGUCAGAUUCUGGUGAAUCUGCGAAUUCUGCUGU [G1U A15U]	0.0945
UGGGGCCACAGCAGAGGCGUUCACGUCGCGGCCCCUGUCAGAUUCUGGUGAAUCUGCGAAUUCUGCUGU [G1U A16G]	0.108
UGGGGCCACAGCAGAUGCGUUCACGUCGCGGCCCCUGUCAGAUUCUGGUGAAUCUGCGAAUUCUGCUGU [G1U A16U]	0.103
UGGGGCCACAGCAGAAGCGUUCCCGUCGCGGCCCCUGUCAGAUUCUGGUGAAUCUGCGAAUUCUGCUGU [G1U A23C]	0.171
